Target: T1, αβγENaC (Rattus norvegicus, UniProt P37089+P37090+P37091)
T1 construct: expressed in transfected cells; host or cells: Xenopus laevis oocytes (cRNA injection)
T1 sequence (P37089 1-698): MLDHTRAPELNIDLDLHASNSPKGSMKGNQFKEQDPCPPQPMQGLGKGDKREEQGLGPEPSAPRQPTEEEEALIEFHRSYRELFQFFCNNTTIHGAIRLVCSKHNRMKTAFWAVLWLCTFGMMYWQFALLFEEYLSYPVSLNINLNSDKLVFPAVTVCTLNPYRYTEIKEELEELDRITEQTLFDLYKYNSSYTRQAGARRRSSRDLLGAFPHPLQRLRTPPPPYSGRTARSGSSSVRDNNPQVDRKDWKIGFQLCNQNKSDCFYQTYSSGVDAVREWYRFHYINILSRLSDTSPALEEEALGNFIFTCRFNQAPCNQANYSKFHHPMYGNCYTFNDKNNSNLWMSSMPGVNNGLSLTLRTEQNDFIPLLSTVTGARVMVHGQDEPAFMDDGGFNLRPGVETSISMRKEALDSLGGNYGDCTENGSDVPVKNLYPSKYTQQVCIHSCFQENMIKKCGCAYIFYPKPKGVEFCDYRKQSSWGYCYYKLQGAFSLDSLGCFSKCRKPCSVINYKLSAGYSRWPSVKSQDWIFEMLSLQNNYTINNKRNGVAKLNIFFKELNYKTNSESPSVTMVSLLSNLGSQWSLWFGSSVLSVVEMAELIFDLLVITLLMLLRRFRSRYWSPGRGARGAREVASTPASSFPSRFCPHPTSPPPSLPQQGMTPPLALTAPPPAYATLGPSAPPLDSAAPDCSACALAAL
T1 sequence (P37090 1-638): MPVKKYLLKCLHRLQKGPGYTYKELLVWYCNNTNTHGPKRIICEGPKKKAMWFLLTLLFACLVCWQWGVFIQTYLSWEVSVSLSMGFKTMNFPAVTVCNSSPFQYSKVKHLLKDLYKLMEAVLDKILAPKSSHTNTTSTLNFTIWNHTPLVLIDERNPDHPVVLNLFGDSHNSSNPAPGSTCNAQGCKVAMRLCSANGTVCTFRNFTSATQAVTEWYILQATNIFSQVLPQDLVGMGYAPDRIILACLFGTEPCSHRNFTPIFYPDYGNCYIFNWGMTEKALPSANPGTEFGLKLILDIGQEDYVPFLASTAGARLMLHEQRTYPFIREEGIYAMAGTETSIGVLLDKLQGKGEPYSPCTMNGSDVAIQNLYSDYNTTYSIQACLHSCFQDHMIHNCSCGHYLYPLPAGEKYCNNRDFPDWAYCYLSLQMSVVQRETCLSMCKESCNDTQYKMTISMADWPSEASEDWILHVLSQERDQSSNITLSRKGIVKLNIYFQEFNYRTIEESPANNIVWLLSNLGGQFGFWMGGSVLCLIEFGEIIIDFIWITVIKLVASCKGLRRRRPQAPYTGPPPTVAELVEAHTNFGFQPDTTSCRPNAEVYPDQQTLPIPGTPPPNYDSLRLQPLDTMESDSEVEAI
T1 sequence (P37091 1-650): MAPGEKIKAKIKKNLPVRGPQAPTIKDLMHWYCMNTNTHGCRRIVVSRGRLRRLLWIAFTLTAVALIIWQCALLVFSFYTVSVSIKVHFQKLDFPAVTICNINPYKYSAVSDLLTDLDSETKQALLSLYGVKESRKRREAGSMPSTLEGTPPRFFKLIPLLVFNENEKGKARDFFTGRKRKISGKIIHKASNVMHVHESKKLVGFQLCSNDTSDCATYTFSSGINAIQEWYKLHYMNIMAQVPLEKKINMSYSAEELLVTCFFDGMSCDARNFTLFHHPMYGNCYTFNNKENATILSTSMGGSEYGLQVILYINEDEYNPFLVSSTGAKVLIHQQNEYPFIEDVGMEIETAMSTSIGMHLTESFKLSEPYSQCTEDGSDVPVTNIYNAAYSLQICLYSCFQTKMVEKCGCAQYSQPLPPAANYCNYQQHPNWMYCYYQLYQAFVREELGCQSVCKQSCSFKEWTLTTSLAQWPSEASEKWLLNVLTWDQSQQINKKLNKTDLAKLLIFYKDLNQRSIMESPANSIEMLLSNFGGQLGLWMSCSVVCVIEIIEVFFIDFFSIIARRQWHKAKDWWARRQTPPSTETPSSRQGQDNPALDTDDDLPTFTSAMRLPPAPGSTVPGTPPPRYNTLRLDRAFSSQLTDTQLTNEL
Experiment: Amiloride-sensitive whole cell current in Xenopus laevis oocytes expressing ENaC (two electrode voltage clamp)
Type: cell-based
Method: Oocyte studies. Xenopus laevis oocytes were harvested and injected as described (Donaldson, et al., J. Biol. Chem. 277:8338 (2002)). Defolliculated healthy stage V-VI oocytes were injected with 0.3 ng of cRNA of each ENaC subunit. Injected oocytes were kept in modified Barth's saline (in mM: 88 NaCl, 1 KCl, 2.4 NaHCO3, 0.3 Ca(NO3)2, 0.41 CaCl2, 0.82 MgSO4, and 15 HEPES, adjusted to pH 7.35 with Tris). Oocytes were studied 24 hr after injection using the two electrode voltage clamp technique as previously described (Donaldson, et al., J. Biol. Chem. 277:8338 (2002)). Oocytes were clamped at a holding potential of […]. The change in amiloride-sensitive whole cell current as an indicator of ENaC activity was determined by subtracting the corresponding current value measured in the presence of 10 μM amiloride from that measured before the application of amiloride.

trypsin [reference compound]
ENaC activity on trypsin exposure (oocytes): increased ENaC activity

B1: SPLUNC1: human SPLUNC1, 256 amino acid secreted PLUNC protein (SEQ ID NO:1); rSPLUNC1 = V5/6His-tagged protein purified from HEK293 media (protein, listed as Homo sapiens)
chain: MFQTGGLIVFYGLLAQTMAQFGGLPVPLDQTLPLNVNPALPLSPTGLAGSLTNALSNGLLSGGLLGILENLPLLDILKPGGGTSGGLLGGLLGKVTSVIPGLNNIIDIKVTDPQLLELGLVQSPDGHRLYVTIPLGIKLQVNTPLVGASLLRLAVKLDITAEILAVRDKQERIHLVLGDCTHSPGSLQISLLDGLGPLPIQGLLDSLTGILNKVLPELVQGNVCPLVNEVLRGLDITLVHDIVNMLIHGLQFVIKV
modifications: V5/6His tag
notes: rSPLUNC1 = V5/6His-tagged protein purified from HEK293 media
ability of CAP1 and CAP2 to activate ENaC (ENaC ± SPLUNC1 co-expressed with prostasin (CAP1) and CAP2): significantly reduced | inhibition of ENaC by full-length and truncated SPLUNC1 (oocyte current inhibition assay, pH 7.4, all p<0.0001): Significant inhibition | trypsin stimulation of ENaC activity (trypsin-exposed oocytes ± SPLUNC1): attenuated

Source: patent US9549967B2, “Regulation of sodium channels by PLUNC proteins” (The University of North Carolina at Chapel Hill, priority 2009, dated 2017)
